Molecular target: T1, Cre^Cat (interdomain linker and C-terminal catalytic domain of Cre recombinase, residues 127-343) (UniProt P06956 127-343)
T1 sequence (looked up): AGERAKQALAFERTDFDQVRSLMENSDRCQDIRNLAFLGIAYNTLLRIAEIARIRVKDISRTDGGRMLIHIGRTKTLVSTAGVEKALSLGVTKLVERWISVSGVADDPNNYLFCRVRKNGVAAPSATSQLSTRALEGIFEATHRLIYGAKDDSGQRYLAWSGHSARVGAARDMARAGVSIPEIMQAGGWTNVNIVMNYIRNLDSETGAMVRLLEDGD
Assay: intermolecular PRE-NMR

B1: MTSL tagged-Cre^Cat C155A/C240A/D343C (domain or fragment, UniProt P06956 127-343, looked up)
chain: AGERAKQALAFERTDFDQVRSLMENSDRAQDIRNLAFLGIAYNTLLRIAEIARIRVKDISRTDGGRMLIHIGRTKTLVSTAGVEKALSLGVTKLVERWISVSGVADDPNNYLFARVRKNGVAAPSATSQLSTRALEGIFEATHRLIYGAKDDSGQRYLAWSGHSARVGAARDMARAGVSIPEIMQAGGWTNVNIVMNYIRNLDSETGAMVRLLEDGC
modifications: MTSL paramagnetic spin probe on C-terminal residue C343
Does B1 bind?
Result: binds
